According to PMC3470569, “Probing Subunit-Subunit Interactions in the Yeast Vacuolar ATPase by Peptide Arrays” (PLoS ONE, 2012):
One block for each binder: values may come before it. Ends that are not written are not given here. cellulose = not defined here

Key:
Experiment in all cases: peptide or protein array; 20-mer peptides linked at their C-terminal end to cellulose and spotted in duplicate on glass slides; blocked in 2% nonfat milk; purified probe at 4 µM in TBS for 1 hour at 4°C; bound probe detected through MBP or FLAG with HRP-coupled antibody (chemiluminescence); hits by ANOVA (p 0.05, Bonferroni) and HCL in MeV, score of at least 1 in 75% of the spots
Details in all cases: both partners purified
[1] = molecular target: T1, full-length subunit C, N-terminal MBP fusion (S. cerevisiae, UniProt P31412 1-392)
T1 construct: V-ATPase subunit C, S. cerevisiae, 392 amino acids; also called MBP-C; source: E. coli, purified (amylose column); not shown: MBP, N-terminal, kept
T1 sequence (looked up): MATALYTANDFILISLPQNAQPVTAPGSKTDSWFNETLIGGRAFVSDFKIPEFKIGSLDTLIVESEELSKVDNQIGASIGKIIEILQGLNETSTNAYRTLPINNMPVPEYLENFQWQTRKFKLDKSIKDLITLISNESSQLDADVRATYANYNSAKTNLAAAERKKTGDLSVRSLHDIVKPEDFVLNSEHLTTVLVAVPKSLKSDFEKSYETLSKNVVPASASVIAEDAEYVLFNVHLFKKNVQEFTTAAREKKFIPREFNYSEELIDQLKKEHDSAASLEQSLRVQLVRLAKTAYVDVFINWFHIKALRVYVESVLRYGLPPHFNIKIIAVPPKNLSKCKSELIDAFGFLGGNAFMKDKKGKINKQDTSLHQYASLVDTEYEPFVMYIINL

[2] = molecular target: maltose binding protein (MBP) only (UniProt P0AEX9 27-396 = MBP)
[3] = molecular target: T2, full-length subunit H (Vma13p), N-terminal MBP fusion (S. cerevisiae, UniProt P41807 1-478)
T2 construct: V-ATPase subunit H (Vma13p), S. cerevisiae, 478 amino acids; Construct provided by the laboratory of Dr. Patricia Kane; also called MBP-H; source: E. coli, purified (amylose column; ultrafiltration or size exclusion chromatography); not shown: MBP, N-terminal, kept
T2 sequence (looked up): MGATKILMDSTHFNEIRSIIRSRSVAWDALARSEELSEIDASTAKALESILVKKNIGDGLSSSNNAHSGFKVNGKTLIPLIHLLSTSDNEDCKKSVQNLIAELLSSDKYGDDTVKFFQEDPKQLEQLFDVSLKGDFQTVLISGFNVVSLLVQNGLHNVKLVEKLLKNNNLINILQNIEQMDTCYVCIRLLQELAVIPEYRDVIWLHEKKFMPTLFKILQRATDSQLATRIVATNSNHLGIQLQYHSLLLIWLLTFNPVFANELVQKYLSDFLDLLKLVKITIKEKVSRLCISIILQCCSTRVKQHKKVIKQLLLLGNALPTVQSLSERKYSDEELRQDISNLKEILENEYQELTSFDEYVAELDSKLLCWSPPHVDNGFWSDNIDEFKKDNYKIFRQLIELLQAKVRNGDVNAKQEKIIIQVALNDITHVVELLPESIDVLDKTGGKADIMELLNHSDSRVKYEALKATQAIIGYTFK

[4] = molecular target: T3, subunit E (Vma4p), N-terminal MBP fusion (S. cerevisiae, UniProt P22203 1-233)
T3 construct: V-ATPase subunit E (Vma4p), S. cerevisiae, 233 amino acids; also called MBP-E; source: E. coli, purified (amylose column); not shown: MBP, N-terminal, kept
T3 sequence (looked up): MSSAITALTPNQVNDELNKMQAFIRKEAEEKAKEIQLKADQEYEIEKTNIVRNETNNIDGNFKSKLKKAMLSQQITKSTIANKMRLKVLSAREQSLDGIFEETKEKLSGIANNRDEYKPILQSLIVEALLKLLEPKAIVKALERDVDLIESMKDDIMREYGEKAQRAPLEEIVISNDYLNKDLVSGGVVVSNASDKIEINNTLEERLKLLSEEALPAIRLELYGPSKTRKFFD

[5] = molecular target: T4, C-terminal domain of subunit H (HCT), N-terminal MBP fusion (S. cerevisiae, UniProt P41807 353-478)
T4 construct: V-ATPase subunit H (Vma13p), S. cerevisiae, C-terminal globular domain 353-478 (126 amino acids); Construct provided by the laboratory of Dr. Patricia Kane; also called MBP-HCT; source: E. coli, purified (amylose column; ultrafiltration or size exclusion chromatography); not shown: MBP, N-terminal, kept
T4 sequence (looked up): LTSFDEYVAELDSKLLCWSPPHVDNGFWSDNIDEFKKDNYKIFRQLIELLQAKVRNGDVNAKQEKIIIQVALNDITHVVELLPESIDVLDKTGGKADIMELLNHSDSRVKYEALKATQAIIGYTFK

binding result [1]: binds
B1: C(181-200) (peptide, UniProt P31412 181-200, looked up)
peptide: PEDFVLNSEHLTTVLVAVPK-cellulose
modifications: reading uncertain
notes: source: synthetic peptide, spotted on glass slide array (Intavis)

binding result [1]: binds
B2: a(451-470) (peptide, UniProt P32563 451-470, looked up)
peptide: RGEIFDMAFTGRYIILLMGV-cellulose
modifications: reading uncertain
notes: as for B1

binding result [2]: binds
B3: D(111-130) (peptide)
peptide: SYIDPEINDFRLTGLGRGGQ-cellulose
modifications: reading uncertain
notes: The promiscuous, 'sticky' peptide that was detected by most probes including MBP alone; source: synthetic peptide, spotted on glass slide array (Intavis)

binding result [3]: binds | binding result [4]: binds
B4: d(151-170) (peptide, UniProt P32366 151-170, looked up)
peptide: TVLVDTPLAPYFKNCFDTAE-cellulose
modifications: reading uncertain
notes: as for B1

binding result [1]: binds
B5: B(61-80) (peptide, UniProt P16140 61-80, looked up)
peptide: TVRQGQVLEIRGDRAIVQVF-cellulose
modifications: reading uncertain
notes: V-ATPase subunit B, S. cerevisiae, residues 61-80; source: synthetic peptide, spotted on glass slide array (Intavis)

binding result [5]: binds | binding result [1]: binds
B6: A(205-224) (peptide, UniProt P17255 205-224, looked up)
peptide: GKKSDFTLYHTWPVRVPRPV-cellulose
modifications: reading uncertain
notes: as for B1

binding result [5]: binds | binding result [1]: binds
B7: C(11-30) (peptide, UniProt P31412 11-30, looked up)
peptide: FILISLPQNAQPVTAPGSKT-cellulose
modifications: reading uncertain
notes: V-ATPase subunit C, S. cerevisiae, residues 11-30; source: synthetic peptide, spotted on glass slide array (Intavis)
